Target: Type I interferon receptor (endogenous, on human promonocytic PIL5 cells derived from U937) (human) (UniProt P17181)
Assay: cell-based or functional assay

UniProt P17181, sequence (P17181 28-557, chain 1 of 2): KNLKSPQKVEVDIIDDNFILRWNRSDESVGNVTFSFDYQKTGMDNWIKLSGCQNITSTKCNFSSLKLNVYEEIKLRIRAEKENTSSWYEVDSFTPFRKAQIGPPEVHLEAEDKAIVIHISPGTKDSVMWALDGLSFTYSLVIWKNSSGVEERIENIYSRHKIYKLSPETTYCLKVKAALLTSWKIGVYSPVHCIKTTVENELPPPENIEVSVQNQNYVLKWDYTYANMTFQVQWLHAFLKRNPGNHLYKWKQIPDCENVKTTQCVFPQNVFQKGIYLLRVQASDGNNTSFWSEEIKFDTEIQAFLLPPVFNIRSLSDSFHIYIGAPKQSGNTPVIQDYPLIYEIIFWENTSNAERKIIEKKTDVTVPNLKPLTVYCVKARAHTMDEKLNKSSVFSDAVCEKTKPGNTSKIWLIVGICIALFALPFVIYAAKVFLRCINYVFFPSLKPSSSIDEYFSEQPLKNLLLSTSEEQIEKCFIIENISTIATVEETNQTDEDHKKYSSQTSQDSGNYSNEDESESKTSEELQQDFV
UniProt P17181, sequence (P48551 27-515, chain 2 of 2, further chain): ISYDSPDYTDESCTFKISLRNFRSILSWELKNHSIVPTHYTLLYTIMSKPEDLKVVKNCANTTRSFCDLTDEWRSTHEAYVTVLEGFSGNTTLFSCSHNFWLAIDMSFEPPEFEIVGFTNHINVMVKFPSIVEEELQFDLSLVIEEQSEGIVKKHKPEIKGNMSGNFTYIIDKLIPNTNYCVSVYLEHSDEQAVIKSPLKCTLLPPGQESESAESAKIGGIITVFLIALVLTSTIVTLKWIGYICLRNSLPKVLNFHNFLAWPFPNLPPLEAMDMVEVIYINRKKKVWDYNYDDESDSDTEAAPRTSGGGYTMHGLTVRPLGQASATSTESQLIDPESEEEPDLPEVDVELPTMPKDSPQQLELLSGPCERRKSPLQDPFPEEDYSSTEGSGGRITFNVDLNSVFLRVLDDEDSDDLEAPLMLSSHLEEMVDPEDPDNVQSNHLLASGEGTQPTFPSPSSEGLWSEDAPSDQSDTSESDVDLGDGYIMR

Substance	luciferase gene reporter assay using PIL5 cells (lowest detectable IFN activity)
IFNβ (from UniProt P01574 22-187) (ligand)	< 1 IU/ml
human IFN α (standard preparation of human interferon alpha) (ligand)	< 1 IU/ml

— patent US20040235157A1
